Laboratory results from paper PMC12096439, “Ion-DNA Interactions as a Key Determinant of Uracil DNA Glycosylase Activity”.

Target: UNG2-Fluor (human, UniProt P13051 =C+1-313, C141A;C166A;C290A;internal_change)
Test: fluorescence quenching titration; 1 mM MgCl2; 10 mM Tris-Cl, 0.1 mM EDTA, pH 8.0, 2 mM NaCl carry-over, MgCl2 varied, 22 C, 50 nM UNG2-Fluor; ex 495 nm, em 520 nm
Settings: protein: recombinant; tags: N-terminal fluorescein (maleimide on added Cys); label: 5' Iowa Black FQ; single strand

UNG2-Fluor, sequence (P13051 other isoform, or with tags, fused parts or gaps C141A;C166A;C290A;): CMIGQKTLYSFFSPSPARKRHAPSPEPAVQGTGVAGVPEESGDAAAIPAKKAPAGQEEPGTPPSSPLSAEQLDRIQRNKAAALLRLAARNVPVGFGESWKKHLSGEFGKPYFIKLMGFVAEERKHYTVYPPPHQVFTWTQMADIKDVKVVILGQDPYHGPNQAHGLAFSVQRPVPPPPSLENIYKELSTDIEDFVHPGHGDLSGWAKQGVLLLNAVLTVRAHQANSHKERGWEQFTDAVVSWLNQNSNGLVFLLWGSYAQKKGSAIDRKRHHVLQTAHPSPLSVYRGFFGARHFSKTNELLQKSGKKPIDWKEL

Binder: CGATAG (ssDNA) [6 nt dark quencher ssDNA]
- Kd: 1000 nM

Binder: TCAGGTGAATCGATAGCTAAGAGCATG (ssDNA) [27 nt dark quencher ssDNA]
- Kd: 3 nM
